Source: PMC8298264, “Function of cofactor Akirin2 in the regulation of gene expression in model human neutrophil-like HL60 cells” (Bioscience Reports, 2021)

Each molecule was assayed on human HL60 cells (assay: SWATH-MS proteomics, differential protein representation, akirin2 KO vs WT HL60 cells). Conditions: KO vs WT HL60 cells; sheet "Under-represented in KO".
Type: cell-based
In short: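 Proteins from WT and akirin2 KO HL60 cells (n=3 biological replicates) were FASP trypsin-digested and analyzed by SWATH-MS DIA with variable windows against an IDA-derived spectral library. Identifications at 1% global FDR; quantities normalized to total area sums of all detected proteins.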

Molecule	Fold Change	Log (Fold Change)
sp¦Q9BXW7¦HDHD5_HUMAN (protein, UniProt Q9BXW7 24-423, looked up) Haloacid dehalogenase-like …: AAGLQGRPARRCYAVGPAQSPPTFGFLLDIDGVLVRGHRVIPAALKAFRRLVNSQGQLRVPVVFVTNAGNILQHSKAQELSALLGCEVDADQVILSHSPMKLFSEYHEKRMLVSGQGPVMENAQGLGFRNVVTVDELRMAFPLLDMVDLERRLKTTPLPRNDFPRIEGVLLLGEPVRWETSLQLIMDVLLSNGSPGAGLATPPYPHLPVLASNMDLLWMAEAKMPRFGHGTFLLCLETIYQKVTGKELRYEGLMGKPSILTYQYAEDLIRRQAERRGWAAPIRKLYAVGDNPMSDVYGANLFHQYLQKATHDGAPELGAGGTRQQQPSASQSCISILVCTGVYNPRNPQSTEPVLGGGEPPFHGHRDLCFSPGLMEASHVVNDVNEAVQLVFRKEGWALE	0.4469	-0.3498

Same assay, conditions: akirin2 KO vs WT HL60 cells; sheet "Under-represented in KO"

Molecule	Fold Change	Log (Fold Change)
sp¦P53618¦COPB_HUMAN (protein, UniProt P53618 2-953, looked up) Coatomer subunit beta: TAAENVCYTLINVPMDSEPPSEISLKNDLEKGDVKSKTEALKKVIIMILNGEKLPGLLMTIIRFVLPLQDHTIKKLLLVFWEIVPKTTPDGRLLHEMILVCDAYRKDLQHPNEFIRGSTLRFLCKLKEAELLEPLMPAIRACLEHRHSYVRRNAVLAIYTIYRNFEHLIPDAPELIHDFLVNEKDASCKRNAFMMLIHADQDRALDYLSTCIDQVQTFGDILQLVIVELIYKVCHANPSERARFIRCIYNLLQSSSPAVKYEAAGTLVTLSSAPTAIKAAAQCYIDLIIKESDNNVKLIVLDRLIELKEHPAHERVLQDLVMDILRVLSTPDLEVRKKTLQLALDLVSSRNVEELVIVLKKEVIKTNNVSEHEDTDKYRQLLVRTLHSCSVRFPDMAANVIPVLMEFLSDNNEAAAADVLEFVREAIQRFDNLRMLIVEKMLEVFHAIKSVKIYRGALWILGEYCSTKEDIQSVMTEIRRSLGEIPIVESEIKKEAGELKPEEEITVGPVQKLVTEMGTYATQSALSSSRPTKKEEDRPPLRGFLLDGDFFVAASLATTLTKIALRYVALVQEKKKQNSFVAEAMLLMATILHLGKSSLPKKPITDDDVDRISLCLKVLSECSPLMNDIFNKECRQSLSHMLSAKLEEEKLSQKKESEKRNVTVQPDDPISFMQLTAKNEMNCKEDQFQLSLLAAMGNTQRKEAADPLASKLNKVTQLTGFSDPVYAEAYVHVNQYDIVLDVLVVNQTSDTLQNCTLELATLGDLKLVEKPSPLTLAPHDFANIKANVKVASTENGIIFGNIVYDVSGAASDRNCVVLSDIHIDIMDYIQPATCTDAEFRQMWAEFEWENKVTVNTNMVDLNDYLQHILKSTNMKCLTPEKALSGYCGFMAANLYARSIFGEDALANVSIEKPIHQGPDAAVTGHIRIRAKSQGMALSLGDKINLSQKKTSI	0.4243	-0.3723
sp¦Q9BX68¦HINT2_HUMAN (protein, UniProt Q9BX68 18-163, looked up) Adenosine …: VAATGVRGGQVRGAAGVTDGNEVAKAQQATPGGAAPTIFSRILDKSLPADILYEDQQCLVFRDVAPQAPVHFLVIPKKPIPRISQAEEEDQQLLGHLLLVAKQTAKAEGLGDGYRLVINDGKLGAQSVYHLHIHVLGGRQLQWPPG	0.4303	-0.3662
sp¦Q8WZA0¦LZIC_HUMAN (protein, UniProt Q8WZA0 1-190, looked up) Protein LZIC: MASRGKTETSKLKQNLEEQLDRLMQQLQDLEECREELDTDEYEETKKETLEQLSEFNDSLKKIMSGNMTLVDELSGMQLAIQAAISQAFKTPEVIRLFAKKQPGQLRTRLAEMDRDLMVGKLERDLYTQQKVEILTALRKLGEKLTADDEAFLSANAGAILSQFEKVSTDLGSGDKILALASFEVEKTKK	0.433	-0.3635
sp¦O43719¦HTSF1_HUMAN (protein, UniProt O43719 2-755, looked up) 17S U2 SnRNP complex …: SGTNLDGNDEFDEQLRMQELYGDGKDGDTQTDAGGEPDSLGQQPTDTPYEWDLDKKAWFPKITEDFIATYQANYGFSNDGASSSTANVEDVHARTAEEPPQEKAPEPTDARKKGEKRKAESGWFHVEEDRNTNVYVSGLPPDITVDEFIQLMSKFGIIMRDPQTEEFKVKLYKDNQGNLKGDGLCCYLKRESVELALKLLDEDEIRGYKLHVEVAKFQLKGEYDASKKKKKCKDYKKKLSMQQKQLDWRPERRAGPSRMRHERVVIIKNMFHPMDFEDDPLVLNEIREDLRVECSKFGQIRKLLLFDRHPDGVASVSFRDPEEADYCIQTLDGRWFGGRQITAQAWDGTTDYQVEETSREREERLRGWEAFLNAPEANRGLRRSDSVSASERAGPSRARHFSEHPSTSKMNAQETATGMAFEEPIDEKKFEKTEDGGEFEEGASENNAKESSPEKEAEEGCPEKESEEGCPKRGFEGSCSQKESEEGNPVRGSEEDSPKKESKKKTLKNDCEENGLAKESEDDLNKESEEEVGPTKESEEDDSEKESDEDCSEKQSEDGSEREFEENGLEKDLDEEGSEKELHENVLDKELEENDSENSEFEDDGSEKVLDEEGSEREFDEDSDEKEEEEDTYEKVFDDESDEKEDEEYADEKGLEAADKKAEEGDADEKLFEESDDKEDEDADGKEVEDADEKLFEDDDSNEKLFDEEEDSSEKLFDDSDERGTLGGFGSVEEGPLSTGSSFILSSDDDDDDI	0.1732	-0.7615
sp¦Q9UQE7¦SMC3_HUMAN (protein, UniProt Q9UQE7 1-1217, looked up) Structural maintenance of …: MYIKQVIIQGFRSYRDQTIVDPFSSKHNVIVGRNGSGKSNFFYAIQFVLSDEFSHLRPEQRLALLHEGTGPRVISAFVEIIFDNSDNRLPIDKEEVSLRRVIGAKKDQYFLDKKMVTKNDVMNLLESAGFSRSNPYYIVKQGKINQMATAPDSQRLKLLREVAGTRVYDERKEESISLMKETEGKREKINELLKYIEERLHTLEEEKEELAQYQKWDKMRRALEYTIYNQELNETRAKLDELSAKRETSGEKSRQLRDAQQDARDKMEDIERQVRELKTKISAMKEEKEQLSAERQEQIKQRTKLELKAKDLQDELAGNSEQRKRLLKERQKLLEKIEEKQKELAETEPKFNSVKEKEERGIARLAQATQERTDLYAKQGRGSQFTSKEERDKWIKKELKSLDQAINDKKRQIAAIHKDLEDTEANKEKNLEQYNKLDQDLNEVKARVEELDRKYYEVKNKKDELQSERNYLWREENAEQQALAAKREDLEKKQQLLRAATGKAILNGIDSINKVLDHFRRKGINQHVQNGYHGIVMNNFECEPAFYTCVEVTAGNRLFYHIVDSDEVSTKILMEFNKMNLPGEVTFLPLNKLDVRDTAYPETNDAIPMISKLRYNPRFDKAFKHVFGKTLICRSMEVSTQLARAFTMDCITLEGDQVSHRGALTGGYYDTRKSRLELQKDVRKAEEELGELEAKLNENLRRNIERINNEIDQLMNQMQQIETQQRKFKASRDSILSEMKMLKEKRQQSEKTFMPKQRSLQSLEASLHAMESTRESLKAELGTDLLSQLSLEDQKRVDALNDEIRQLQQENRQLLNERIKLEGIITRVETYLNENLRKRLDQVEQELNELRETEGGTVLTATTSELEAINKRVKDTMARSEDLDNSIDKTEAGIKELQKSMERWKNMEKEHMDAINHDTKELEKMTNRQGMLLKKKEECMKKIRELGSLPQEAFEKYQTLSLKQLFRKLEQCNTELKKYSHVNKKALDQFVNFSEQKEKLIKRQEELDRGYKSIMELMNVLELRKYEAIQLTFKQVSKNFSEVFQKLVPGGKATLVMKKGDVEGSQSQDEGEGSGESERGSGSQSSVPSVDQFTGVGIRVSFTGKQGEMREMQQLSGGQKSLVALALIFAIQKCDPAPFYLFDEIDQALDAQHRKAVSDMIMELAVHAQFITTTFRPELLESADKFYGVKFRNKVSHIDVITAEMAKDFVEDDTTHG	0.4375	-0.359
sp¦Q99442¦SEC62_HUMAN (protein, UniProt Q99442 1-399, looked up) Translocation protein SEC62: MAERRRHKKRIQEVGEPSKEEKAVAKYLRFNCPTKSTNMMGHRVDYFIASKAVDCLLDSKWAKAKKGEEALFTTRESVVDYCNRLLKKQFFHRALKVMKMKYDKDIKKEKDKGKAESGKEEDKKSKKENIKDEKTKKEKEKKKDGEKEESKKEETPGTPKKKETKKKFKLEPHDDQVFLDGNEVYVWIYDPVHFKTFVMGLILVIAVIAATLFPLWPAEMRVGVYYLSVGAGCFVASILLLAVARCILFLIIWLITGGRHHFWFLPNLTADVGFIDSFRPLYTHEYKGPKADLKKDEKSETKKQQKSDSEEKSDSEKKEDEEGKVGPGNHGTEGSGGERHSDTDSDRREDDRSQHSSGNGNDFEMITKEELEQQTDGDCEEDEEEENDGETPKSSHEKS	0.4401	-0.3564
RRRRRsp¦Q5VW38¦GP107_HUMAN (protein, UniProt Q5VW38 40-600, looked up) Protein GPR107: RVHHLALKDDVRHKVHLNTFGFFKDGYMVVNVSSLSLNEPEDKDVTIGFSLDRTKNDGFSSYLDEDVNYCILKKQSVSVTLLILDISRSEVRVKSPPEAGTQLPKIIFSRDEKVLGQSQEPNVNPASAGNQTQKTQDGGKSKRSTVDSKAMGEKSFSVHNNGGAVSFQFFFNISTDDQEGLYSLYFHKCLGKELPSDKFTFSLDIEITEKNPDSYLSAGEIPLPKLYISMAFFFFLSGTIWIHILRKRRNDVFKIHWLMAALPFTKSLSLVFHAIDYHYISSQGFPIEGWAVVYYITHLLKGALLFITIALIGTGWAFIKHILSDKDKKIFMIVIPLQVLANVAYIIIESTEEGTTEYGLWKDSLFLVDLLCCGAILFPVVWSIRHLQEASATDGKGDSMGPLQQRANLRAGSRIESHHFAQADLELLASSCPPASVSQRAGITAAINLAKLKLFRHYYVLIVCYIYFTRIIAFLLKLAVPFQWKWLYQLLDETATLVFFVLTGYKFRPASDNPYLQLSQEEEDLEMESVVTTSGVMESMKKVKKVTNGSVEPQGEWEGAV	0.4419	-0.3547
